Consider four molecules from paper PMC10359491, “Identification and characterization of aptameric inhibitors of human neutrophil elastase”.

Series [1] concerns the target T1, human neutrophil elastase (HNE) (Homo sapiens, UniProt P08246 30-267). Briefly: enzyme inhibition. The note with it: elastin-Congo red, 90% for E6 and E12, ELISA: PBS pH 7.4, 5 mM MgCl2, 10 mM KCl, 0.01% Tween 20, 20 min (temperature not stated), inhibition: 50 mM Tris pH 7.5, 150 mM NaCl, 5 mM MgCl2, 0.
Series [2] has as its target T1, human neutrophil elastase (HNE). The series can be described thus: ELISA; HNE immobilized; ELISA: PBS pH 7.4, 5 mM MgCl2, 10 mM KCl, 0.01% Tween 20, 20 min (temperature not stated); inhibition: 50 mM Tris pH 7.5, 150 mM NaCl, 10 mM KCl, 5 mM MgCl2, 0.02% Tween 20, 37 C. The note with it: protein: commercial; for Kd: label: biotin (ELISA).
The target is the same in series [3]. The series can be described thus: enzyme inhibition; elastin-Congo red, 100 nM HNE; E6/E12 values swapped in a second sentence; ELISA: PBS pH 7.4, 5 mM MgCl2, 10 mM KCl, 0.01% Tween 20, 20 min (temperature not stated); inhibition: 50 mM Tris pH 7.5, 150 mM NaCl, 10 mM KCl, 5 mM MgCl2, 0.02% Tween 20, 37 C. To be noted: protein: commercial, label: biotin (ELISA).

The target is the same in series [4]. The series can be described thus: enzyme inhibition; DQ gelatin substrate; competitive; ELISA: PBS pH 7.4, 5 mM MgCl2, 10 mM KCl, 0.01% Tween 20, 20 min (temperature not stated); inhibition: 50 mM Tris pH 7.5, 150 mM NaCl, 10 mM KCl, 5 mM MgCl2, 0.02% Tween 20, 37 C. The note with it: protein: commercial, label: biotin (ELISA).
The mark [5] stands for this setting: predicted: 1 G4, 3 hairpin loops (not tested).
[6] abbreviates: predicted: 2 G4, 2 hairpin loops (not tested).

T1 sequence (P08246 30-267): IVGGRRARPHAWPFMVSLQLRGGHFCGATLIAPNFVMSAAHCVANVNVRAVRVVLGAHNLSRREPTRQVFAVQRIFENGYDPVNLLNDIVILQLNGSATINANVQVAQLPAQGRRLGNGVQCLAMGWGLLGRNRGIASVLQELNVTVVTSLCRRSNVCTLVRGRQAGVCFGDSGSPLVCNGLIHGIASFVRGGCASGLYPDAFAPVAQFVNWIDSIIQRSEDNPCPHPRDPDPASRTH

As to dsDNA 24-mer, the binding signal in series [1] turned out to be 10 % inhibition.

B1: NC nonspecific ssDNA (ssDNA)
DNA: CATGCTTCCCCAGGGAGATGAACCCTTTGGGAAACCCTTTGGGAAACCCTTTGGGGAGGAACATGCGTCGCAAAC
For the molecule B1, the binding result in series [2] (label: 5' biotin (ELISA)) is on record as “no binding”.

B2: aptamer E6 (ssDNA)
DNA: CATGCTTCCCCAGGGAGATGAGGACGGGCGTGGGGATGGGTATGGTGCAACTCCCGAGGAACATGCGTCGCAAAC
With B2, in series [3] (setting [5]), the IC50 was 173 nM. Besides, the Kd in series [2] (setting [5]) was 20.5 nM. The inhibition constant Ki in series [4] (setting [5]) was 52 ± 6 nM.

B3: aptamer E12 (ssDNA)
DNA: CATGCTTCCCCAGGGAGATGGGCGTGGGGGTTGGGTATGGTGCTTGAGGGGCCTGGAGGAACATGCGTCGCAAAC
Take B3: the 50% inhibitory concentration (IC50) in series [3] (setting [6]) is 178 nM. Besides, in series [2] (setting [6]), the dissociation constant (Kd) is 13.9 nM. Also, the inhibitory constant (Ki) in series [4] (setting [6]) is 22 ± 1 nM.

In general, IC50 refers to the concentration at which inhibition is half-maximal. The term Kd denotes a measure of binding affinity in units of concentration. One may read the Ki as a measure of affinity in units of concentration, obtained from inhibition or displacement.
